Laboratory results published in paper PMC6985235, “Endomembrane Protein Trafficking Regulated by a TvCyP2 Cyclophilin in the Protozoan Parasite, Trichomonas vaginalis” (Scientific Reports, 2020).

What was measured:
GST-TvCyP2 = biological target: T1, GST-TvCyP2 (Trichomonas vaginalis, UniProt A2DLL4 1-186); assay: pull-down; GST pull-down: 30 picomoles of GST or GST-fusion protein on 20 μl glutathione beads with 35 nM His-tagged protein in 1 ml TEN200 (1 mM EDTA, 200 mM NaCl, 20 mM Tris-HCl pH 7.4), 4 °C overnight; washes with 0.1% TritonX-100; anti-6xHis Western blot; in Fig. 3D also with DMSO or 5 μM cyclosporine A (binding greatly diminished); details: both partners purified
T1 construct: 186 aa; source: E. coli DH5α, purified (glutathione-conjugated beads)

GST-TvCyP2(R75A) = biological target: T2, GST-TvCyP2(R75A) (Trichomonas vaginalis, UniProt A2DLL4 1-186, R75A); assay: as above; details: both partners purified
T2 construct: source: E. coli DH5α, purified (glutathione-conjugated beads)

B1: His-TvCyP1 (enzyme)
chain: not shown
notes: TvCyP1 cyclophilin of Trichomonas vaginalis; ~19-kDa band; source: purified
binding result (GST-TvCyP2): binds | binding result (GST-TvCyP2(R75A)): binds
